pKd: −log10 of the molar value.

The text below walks through data of paper PMC4649164.

For this assay, the target named is HIV gp120 (HIV-1). Put plainly: SPR.

The term pKd denotes −log10 of the Kd, conventionally taken in molar units. Read a high pKd as a low Kd. What is called koff is a measure of how fast the partners let go of each other. Read a high koff as fast dissociation. In general, kon refers to the second-order rate constant of association. High values mean fast association, low ones slow association. “Griffithsin (from UniProt P84801 1-121) (natural protein)” showed a pKd of 9.10, a koff of 0.00175 s⁻¹ and a kon of 2.19e+06 M⁻¹ s⁻¹.
